Data reported in publication PMC4390396.

Substrate: O=C(O)c1ccc(O)cc1
Experiment: cells, lysate or membranes

B1: E. coli UbiA (EcUbiA) (Escherichia coli K-12; R60A) (protein)
chain: MEWSLTQNKLLAFHRLMRTDKPIGALLLLWPTLWALWVATPGVPQLWILAVFVAGVWLMAAAGCVVNDYADRKFDGHVKRTANRPLPSGAVTEKEARALFVVLVLISFLLVLTLNTMTILLSIAALALAWVYPFMKRYTHLPQVVLGAAFGWSIPMAFAAVSESVPLSCWLMFLANILWAVAYDTQYAMVDRDDDVKIGIKSTAILFGQYDKLIIGILQIGVLALMAIIGELNGLGWGYYWSILVAGALFVYQQKLIANREREACFKAFMNNNYVGLVLFLGLAMSYWHF
Km: 3000 µM
